Experimental data published in patent US20110033543A1 (UNIVERSITY OF DELAWARE, published 2011).
Ends that are not written are not given here.

Columns and labels:
[1] = molecular target: the molecule itself; assay: circular dichroism, concentration dependence of MRE at 222 nm in PBS, fit for the Kd of the dimerization; isolated PF4ZIP, not conjugated to PEG
Experimental: Samples were equilibrated at the desired temperature for 30 minutes prior to data collection; equilibration was indicated by the absence of further changes in the CD signal at longer equilibration times. All CD spectra were taken in a 1 mm path length quartz cuvette, at wavelengths from 200 to 250 nm. Data points were recorded at every nanometer with a 4.0 s response time. The concentrations of peptide samples were determined via amino acid analysis for calculation of mean residue ellipticities.
The conformation of PF₄ZIP at various concentrations was also monitored via CD. […] The difference between the measured ellipticity and the ellipticity of the unfolded monomer is related to concentration and can be fit to determine the Kd of the dimerization, via standard fitting procedures well-described in the literature.

[2] = molecular target: T1, streptavidin (SA chip) (UniProt P22629 37-163, limits assumed); assay: SPR, Biacore 3000, streptavidin-coated chip
T1 construct: Chip surface of the SPR experiments; also called SA chips; streptavidin-coated chip
T1 sequence (P22629 37-163 limits assumed): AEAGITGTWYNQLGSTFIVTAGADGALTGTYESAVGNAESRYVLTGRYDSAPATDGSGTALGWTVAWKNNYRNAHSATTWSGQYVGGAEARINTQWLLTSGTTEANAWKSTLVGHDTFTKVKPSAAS
Experimental: Surface Plasmon Resonance (SPR). SPR sensorgrams were recorded on a BiaCore 3000 instrument (Biacore Inc, Piscataway, N.J.), employing a high-capacity LMWH surface created on a commercially available streptavidin-coated chip via treatment with biotinylated LMWH.
In SPR experiments, the interaction of the peptides with a LMWH-modified SA chip surface was determined under conditions described in the experimental section.

B1: PF4ZIP (peptide)
peptide: CGGRMKQLEDKVKKLLKKNYHLENEVARLKKLVG-NH2
modifications: also: coiled-coil dimer
notes: also called coiled-coil PF4ZIP
For B1, the Kd [1] was 3.48 µM and the binding result [2] was “no binding”.
